Laboratory results as given in US20220040319A1 (Regeneron, published 2022).

Tests used:
[1] = target: T1, human MET on cells (human, UniProt P08581 25-1390); test: cell-based or functional assay
[2] = target: T1, human MET on cells; test: cell-based or functional assay; remark: listed apart in the source
[3] = target: T1, human MET on cells; test: cell-based or functional assay; remark: listed apart in the source
[4] = target: T2, hMet.mmh (human MET extracellular domain with C-terminal myc-myc-hexahistidine tag) (human, UniProt P08581 309-914; P08581 27-307); test: SPR 37C, antibody captured
T2 construct: soluble monomeric MET; also called monomeric human MET
T2 sequence (P08581 other isoform, or with tags, fused parts or gaps limits assumed, chain 1 of 2): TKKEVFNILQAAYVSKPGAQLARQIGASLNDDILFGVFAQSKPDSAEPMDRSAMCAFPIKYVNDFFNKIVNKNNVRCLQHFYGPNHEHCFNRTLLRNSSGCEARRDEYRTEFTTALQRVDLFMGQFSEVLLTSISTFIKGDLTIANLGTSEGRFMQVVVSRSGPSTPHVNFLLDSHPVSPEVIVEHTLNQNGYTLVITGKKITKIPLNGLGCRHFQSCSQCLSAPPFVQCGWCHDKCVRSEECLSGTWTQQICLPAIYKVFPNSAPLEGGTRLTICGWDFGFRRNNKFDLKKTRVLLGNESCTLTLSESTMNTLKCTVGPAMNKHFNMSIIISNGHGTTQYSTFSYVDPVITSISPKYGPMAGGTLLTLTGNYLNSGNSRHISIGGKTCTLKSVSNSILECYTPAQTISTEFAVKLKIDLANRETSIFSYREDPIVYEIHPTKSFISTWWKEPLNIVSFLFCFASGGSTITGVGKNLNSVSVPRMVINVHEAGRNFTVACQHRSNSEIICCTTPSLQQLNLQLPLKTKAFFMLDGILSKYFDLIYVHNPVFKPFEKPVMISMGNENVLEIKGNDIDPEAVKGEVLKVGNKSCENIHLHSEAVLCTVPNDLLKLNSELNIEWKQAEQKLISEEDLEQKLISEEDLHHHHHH
T2 sequence (P08581 27-307 limits assumed, chain 2 of 2): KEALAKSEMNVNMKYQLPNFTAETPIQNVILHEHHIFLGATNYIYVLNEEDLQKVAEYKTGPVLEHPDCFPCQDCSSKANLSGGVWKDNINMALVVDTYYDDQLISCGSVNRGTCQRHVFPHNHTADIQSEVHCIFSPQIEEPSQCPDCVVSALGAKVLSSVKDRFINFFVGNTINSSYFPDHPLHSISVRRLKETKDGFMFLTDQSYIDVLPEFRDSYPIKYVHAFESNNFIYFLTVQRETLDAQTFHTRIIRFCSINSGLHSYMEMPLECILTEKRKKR
Procedure: (§1) The anti-Met antibodies tested in this example were bivalent monospecific binders of MET.
(§2) Kinetic association (kₐ) and dissociation (kd) rate constants were determined by fitting the real-time sensorgrams to a 1:1 binding model using Scrubber 2.0c curve fitting software. Binding dissociation equilibrium constant (KD) and dissociative half-life (t1/2) were calculated from the kinetic rate constants as: […]

[5] = target: T3, hMET.mFc (dimeric human MET) (human, UniProt P08581 27-307); test: SPR 37C, antibody captured
T3 construct: soluble dimeric MET protein
T3 sequence (P08581 other isoform, or with tags, fused parts or gaps limits assumed, chain 1 of 2): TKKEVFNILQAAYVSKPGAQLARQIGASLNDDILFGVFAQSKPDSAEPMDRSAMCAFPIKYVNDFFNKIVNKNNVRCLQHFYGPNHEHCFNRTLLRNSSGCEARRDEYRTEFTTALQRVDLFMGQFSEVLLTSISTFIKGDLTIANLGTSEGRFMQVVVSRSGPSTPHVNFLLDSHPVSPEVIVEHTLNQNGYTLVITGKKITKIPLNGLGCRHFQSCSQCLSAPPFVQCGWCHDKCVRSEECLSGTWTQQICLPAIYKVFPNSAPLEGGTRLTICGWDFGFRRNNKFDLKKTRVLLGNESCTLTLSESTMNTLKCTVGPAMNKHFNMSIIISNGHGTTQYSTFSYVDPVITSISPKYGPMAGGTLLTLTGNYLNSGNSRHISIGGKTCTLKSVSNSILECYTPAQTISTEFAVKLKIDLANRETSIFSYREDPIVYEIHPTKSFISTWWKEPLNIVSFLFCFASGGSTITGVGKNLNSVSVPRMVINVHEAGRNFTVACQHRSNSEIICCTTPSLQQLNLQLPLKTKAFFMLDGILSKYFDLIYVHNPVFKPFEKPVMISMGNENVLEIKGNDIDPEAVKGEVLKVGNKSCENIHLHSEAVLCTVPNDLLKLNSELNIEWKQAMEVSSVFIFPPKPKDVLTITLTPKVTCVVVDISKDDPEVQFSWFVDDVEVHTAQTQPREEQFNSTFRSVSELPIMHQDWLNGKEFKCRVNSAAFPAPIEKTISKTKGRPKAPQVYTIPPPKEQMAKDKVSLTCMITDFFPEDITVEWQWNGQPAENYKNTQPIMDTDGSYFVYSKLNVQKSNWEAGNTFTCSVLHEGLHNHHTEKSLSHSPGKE
T3 sequence (P08581 27-307 limits assumed, chain 2 of 2): as the sequence (P08581 27-307 limits assumed, chain 2 of 2) above
Procedure: as §1, §2
Wherever % Inhibition, HEK293/SRE-Luc Blocking Activity (HGF, 1 h mAb pre-bind) is given: test concentration or dose not given here.

T1 sequence (P08581 25-1390 limits assumed, form in doubt): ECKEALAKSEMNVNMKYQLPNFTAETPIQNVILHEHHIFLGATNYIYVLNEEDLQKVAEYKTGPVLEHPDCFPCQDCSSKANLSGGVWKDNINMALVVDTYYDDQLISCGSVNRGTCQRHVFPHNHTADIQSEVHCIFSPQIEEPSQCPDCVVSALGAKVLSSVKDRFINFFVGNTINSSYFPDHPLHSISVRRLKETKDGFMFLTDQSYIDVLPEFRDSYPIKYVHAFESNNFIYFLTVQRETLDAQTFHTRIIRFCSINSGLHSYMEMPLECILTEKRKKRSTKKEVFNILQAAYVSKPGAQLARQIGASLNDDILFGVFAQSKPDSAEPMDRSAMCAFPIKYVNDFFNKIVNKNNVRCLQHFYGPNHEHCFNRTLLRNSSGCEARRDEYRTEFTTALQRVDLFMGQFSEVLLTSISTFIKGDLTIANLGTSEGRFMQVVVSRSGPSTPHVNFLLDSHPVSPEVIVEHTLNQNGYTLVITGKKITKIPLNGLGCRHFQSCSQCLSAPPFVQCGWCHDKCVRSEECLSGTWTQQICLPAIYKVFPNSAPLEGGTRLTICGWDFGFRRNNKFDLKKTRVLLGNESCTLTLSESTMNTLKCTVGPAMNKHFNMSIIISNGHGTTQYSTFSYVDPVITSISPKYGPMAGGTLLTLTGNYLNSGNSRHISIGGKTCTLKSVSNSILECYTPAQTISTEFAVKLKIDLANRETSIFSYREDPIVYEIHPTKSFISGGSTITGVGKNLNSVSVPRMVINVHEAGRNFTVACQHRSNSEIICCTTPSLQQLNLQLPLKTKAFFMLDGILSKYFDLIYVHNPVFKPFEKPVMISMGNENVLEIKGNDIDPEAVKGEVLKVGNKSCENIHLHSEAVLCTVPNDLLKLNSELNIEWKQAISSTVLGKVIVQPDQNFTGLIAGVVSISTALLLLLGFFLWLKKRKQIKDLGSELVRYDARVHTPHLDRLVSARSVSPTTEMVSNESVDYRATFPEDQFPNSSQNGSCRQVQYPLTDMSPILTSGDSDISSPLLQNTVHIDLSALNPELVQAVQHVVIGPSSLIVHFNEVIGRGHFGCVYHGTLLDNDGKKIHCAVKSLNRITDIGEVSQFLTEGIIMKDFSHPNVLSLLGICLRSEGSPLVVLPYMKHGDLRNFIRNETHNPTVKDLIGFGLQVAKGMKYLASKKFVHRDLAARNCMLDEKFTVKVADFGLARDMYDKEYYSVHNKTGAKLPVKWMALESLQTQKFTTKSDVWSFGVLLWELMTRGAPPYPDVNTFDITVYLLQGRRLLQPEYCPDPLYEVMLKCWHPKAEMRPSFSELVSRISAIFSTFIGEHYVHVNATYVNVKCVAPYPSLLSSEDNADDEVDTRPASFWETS

Binder | % Growth Inhibition, SNU5 cells [1] [%] | IC50, SNU5 growth [1] [pM] | % Inhibition, HEK293/SRE-Luc Blocking Activity (HGF, 1 h mAb pre-bind) [2] [%] | Fold Response, Ligand (HGF)-Independent HEK293/SRE-Luc Activation [2] [fold] | IC50, HEK293/SRE-Luc Blocking Activity (HGF, 1 h mAb pre-bind) [2] [pM] | Kd [4] [nM] | T½ [4] [min] | koff [4] [s⁻¹] | kon [4] [M⁻¹ s⁻¹] | Kd [5] [nM] | T½ [5] [min] | koff [5] [s⁻¹] | kon [5] [M⁻¹ s⁻¹] | also measured
H4H13325P2 (antibody, human IgG4, V domains shown) VH: EVQLLESGGGWVQPGGSLRLSCAASGFAFSNYAMNWVRQTPGKGLEWVSVISSSGGNTYYADSVKGRFAISRDNSRDTLHLQMNRLRVEDTAVYYCAKEIRPYYDLSYYYGMDVWGQGTTVTVSS VL: not shown | 57 | 44 | 69 | 4.3 | 13 |  |  |  |  |  |  |  |  | EC50, Ligand (HGF)-Independent HEK293/SRE-Luc Activation [2]: 190 pM
H4H13316P2 (antibody, human IgG4, V domains shown) VH: EVQLVESGGGLVQPGGSLRLSCAASGFTFRSYVMSWFRQAPGKGLEWVSGMSGSGGSTSYADSVKGRFTISRDNSKNTLYLLMNSLRTEDTAVYYCAKENGANWNYGYYGMDVWGQGTTVTVSS VL: not shown | 53 | 100 | 74 | 2.3 | 7.8 |  |  |  |  |  |  |  |  | EC50, Ligand (HGF)-Independent HEK293/SRE-Luc Activation [2]: 47 pM
H4H13302P2 (antibody, human IgG4, V domains shown) VH: QVQLVESGGGVVQPGRSLRLSCAASGFTFSNFGMHWVRQAPGKGLEWVAGIWFDGSNKNYIDSVKGRFTISRDNSKNTLYLQMNSLRAEDTAVYYCAREGYDSGTDYIPYDIFDIWGQGTMVTVSS VL: not shown | 40 | 110 | 45 | 1.8 | 1600 |  |  |  |  |  |  |  |  | 
H4H13313P2 (antibody, human IgG4, V domains shown) VH: QVQLVESGGGVVQPGRSLRLSCSASGFSFSHFGMHWVRQVPGGGLEWVTSIWFDGSNRYYADSLKGRFTISRDNSKNTLYLEMNSLRAEDTAVYYCVREGILGTTNPYDVFDVWGQGTMVTVSS VL: not shown | 34 | 44 | 47 | 1.2 | 2300 |  |  |  |  |  |  |  |  | 
H4H13301P2 (antibody, human IgG4, V domains shown) VH: QVQLVESGGGVVQPGTSLRLSCVASGFTFRNFGMHWVRQAPGKGLEWVANIWFDGSNENYVESIQGRFTISRDNSKNTLNLQMNSLRAEDSAVYYCVREGILGTTNPYDAFDVWGQGTMVTVSS VL: not shown | 33 | 74 | 40 | 1.6 | 1500 |  |  |  |  |  |  |  |  | 
H1H13301P2 (antibody, IgG1, V domains shown) VH: QVQLVESGGGVVQPGTSLRLSCVASGFTFRNFGMHWVRQAPGKGLEWVANIWFDGSNENYVESIQGRFTISRDNSKNTLNLQMNSLRAEDSAVYYCVREGILGTTNPYDAFDVWGQGTMVTVSS VL: not shown | 33 | 100 | 42 | 1.4 | 3300 |  |  |  |  |  |  |  |  | 
H1H13316P2 (antibody, IgG1, V domains shown) VH: EVQLVESGGGLVQPGGSLRLSCAASGFTFRSYVMSWFRQAPGKGLEWVSGMSGSGGSTSYADSVKGRFTISRDNSKNTLYLLMNSLRTEDTAVYYCAKENGANWNYGYYGMDVWGQGTTVTVSS VL: not shown | 30 | 200 | 86 | 1.7 | 40 |  |  |  |  |  |  |  |  | 
H4H13295P2 (antibody, human IgG4, V domains shown) VH: QVQLVESGGGVVQPGRSLRVSCVVSGFTFSSFGMHWVRQAPDKGLEWVAVIWYDGSNDYYSDSVKGRFTISRDNSKNTLFLQMNRLRAEDTAVYYCARANNWNRFDAFDLWGQGTMVTVSS VL: not shown | 30 |  | 70 | 2.8 | 55 |  |  |  |  |  |  |  |  | EC50, Ligand (HGF)-Independent HEK293/SRE-Luc Activation [2]: 300 pM
H4H13312P2-Maytansinoid A (antibody, IgG4, V domains shown, SMCC-DM1 (Maytansinoid A) linker-payload conjugated to the antibody; residues not stated) VH: EVQLVESGGGLVQPGGSLRLSCAASGFIVTTNYMTWLRQAPGKGLEWVSLIYSSGHTYYADSVKGRFTISRHNSKNTLYLQMDSLRAEDTAVYYCASAFAADVFDIWGQGTMVTVSS VL: not shown |  |  |  |  |  |  |  |  |  |  |  |  |  | IC50, 6-day in vitro cytotoxicity, A549 [3]: 18.3 nM; IC50, 6-day in vitro cytotoxicity, EBC-1 [3]: 0.39 nM; IC50, 6-day in vitro cytotoxicity, Hs746t [3]: 1.59 nM; Max % Kill, 6-day in vitro cytotoxicity, A549 [3]: 89%; Max % Kill, 6-day in vitro cytotoxicity, EBC-1 [3]: 95%; Max % Kill, 6-day in vitro cytotoxicity, Hs746t [3]: 87%
H4H13312P2-Maytansinoid B (antibody, IgG4, V domains shown, Maytansinoid B (Compound 1, FIG. 20) linker-payload conjugated to the antibody; residues not stated) VH: EVQLVESGGGLVQPGGSLRLSCAASGFIVTTNYMTWLRQAPGKGLEWVSLIYSSGHTYYADSVKGRFTISRHNSKNTLYLQMDSLRAEDTAVYYCASAFAADVFDIWGQGTMVTVSS VL: not shown |  |  |  |  |  |  |  |  |  |  |  |  |  | IC50, 6-day in vitro cytotoxicity, A549 [3]: 27.1 nM; IC50, 6-day in vitro cytotoxicity, EBC-1 [3]: 0.07 nM; IC50, 6-day in vitro cytotoxicity, Hs746t [3]: 0.89 nM; Max % Kill, 6-day in vitro cytotoxicity, A549 [3]: 85%; Max % Kill, 6-day in vitro cytotoxicity, EBC-1 [3]: 95%; Max % Kill, 6-day in vitro cytotoxicity, Hs746t [3]: 90%
H4H14635D-Maytansinoid A (bispecific antibody, V domains shown, SMCC-DM1 (Maytansinoid A) linker-payload conjugated to the antibody; residues not stated) VH 1: QVQLVESGGGVVQPGRSLRVSCVVSGFTFSSFGMHWVRQAPDKGLEWVAVIWYDGSNDYYSDSVKGRFTISRDNSKNTLFLQMNRLRAEDTAVYYCARANNWNRFDAFDLWGQGTMVTVSS VH 2: EVQLVESGGGLVQPGGSLRLSCAASGFIVTTNYMTWLRQAPGKGLEWVSLIYSSGHTYYADSVKGRFTISRHNSKNTLYLQMDSLRAEDTAVYYCASAFAADVFDIWGQGTMVTVSS VL: not shown |  |  |  |  |  |  |  |  |  |  |  |  |  | IC50, 6-day in vitro cytotoxicity, A549 [3]: 6.78 nM; IC50, 6-day in vitro cytotoxicity, EBC-1 [3]: 0.76 nM; IC50, 6-day in vitro cytotoxicity, Hs746t [3]: 1.76 nM; Max % Kill, 6-day in vitro cytotoxicity, A549 [3]: 91%; Max % Kill, 6-day in vitro cytotoxicity, EBC-1 [3]: 96%; Max % Kill, 6-day in vitro cytotoxicity, Hs746t [3]: 86%
H4H14635D-Maytansinoid B (bispecific antibody, V domains shown, Maytansinoid B (Compound 1, FIG. 20) linker-payload conjugated to the antibody; residues not stated) VH 1: QVQLVESGGGVVQPGRSLRVSCVVSGFTFSSFGMHWVRQAPDKGLEWVAVIWYDGSNDYYSDSVKGRFTISRDNSKNTLFLQMNRLRAEDTAVYYCARANNWNRFDAFDLWGQGTMVTVSS VH 2: EVQLVESGGGLVQPGGSLRLSCAASGFIVTTNYMTWLRQAPGKGLEWVSLIYSSGHTYYADSVKGRFTISRHNSKNTLYLQMDSLRAEDTAVYYCASAFAADVFDIWGQGTMVTVSS VL: not shown |  |  |  |  |  |  |  |  |  |  |  |  |  | IC50, 6-day in vitro cytotoxicity, A549 [3]: 21.4 nM; IC50, 6-day in vitro cytotoxicity, EBC-1 [3]: 0.26 nM; IC50, 6-day in vitro cytotoxicity, Hs746t [3]: 2.32 nM; Max % Kill, 6-day in vitro cytotoxicity, A549 [3]: 72%; Max % Kill, 6-day in vitro cytotoxicity, EBC-1 [3]: 96%; Max % Kill, 6-day in vitro cytotoxicity, Hs746t [3]: 89%
H4H13331P2 (antibody, human IgG4, V domains shown, human IgG4 Fc (H4H), bivalent monospecific) VH: QVQLQESGPGLVKSSETLSLTCTVSGGSIRNFYWSWLRQPPGKGLEWIGHINYNGGTDYNPSLKSRVTISVDTSKNQFSLNLNSVTAADTAVYYCARQRFYGMDVWGPGTTVTVSS VL: not shown |  |  |  |  |  | 3.35 | 13.2 | 0.000873 | 261000 | 0.244 | 74.1 | 0.000156 | 639000 | 
H4H13295P2 (antibody, human IgG4, V domains shown, human IgG4 Fc (H4H), bivalent monospecific) VH: QVQLVESGGGVVQPGRSLRVSCVVSGFTFSSFGMHWVRQAPDKGLEWVAVIWYDGSNDYYSDSVKGRFTISRDNSKNTLFLQMNRLRAEDTAVYYCARANNWNRFDAFDLWGQGTMVTVSS VL: not shown |  |  |  |  |  | 32.4 | 21.4 | 0.00054 | 16700 | 1.16 | 43.8 | 0.000264 | 228000 | 
H4H13299P2 (antibody, human IgG4, V domains shown, human IgG4 Fc (H4H), bivalent monospecific) VH: EVQLVESGGGLVQPGGSLRLSCAASGFIFSNYEMNWVRQAPGKGLEWISYITSSGNMKYYADSVKGRFTISRDNDKNSLYLQMSSLRVEDTAVYYCVRGGRFLEWLTYYVMVVWGQGTTVTVSS VL: not shown |  |  |  |  |  | 8.57 | 14.8 | 0.00078 | 91000 | 0.878 | 36.8 | 0.000314 | 357000 | 
H4H13300P2 (antibody, human IgG4, V domains shown, human IgG4 Fc (H4H), bivalent monospecific) VH: QVQLVESGGGVVQPGRSLRLSCAVSGFTFSSYGMHWVRQAPGKGLEWVANIWYDGTNDYYPYSVKGRFTISRDNSQNTLYLQMNSLRAEDTAVYYCAREDFINYRSFDYWGQGTLVTVSS VL: not shown |  |  |  |  |  | 72.5 | 4.8 | 0.00243 | 33500 | 1.12 | 39.1 | 0.000295 | 265000 | 
H4H13301P2 (antibody, human IgG4, V domains shown, human IgG4 Fc (H4H), bivalent monospecific) VH: QVQLVESGGGVVQPGTSLRLSCVASGFTFRNFGMHWVRQAPGKGLEWVANIWFDGSNENYVESIQGRFTISRDNSKNTLNLQMNSLRAEDSAVYYCVREGILGTTNPYDAFDVWGQGTMVTVSS VL: not shown |  |  |  |  |  | 82.2 | 1.9 | 0.00622 | 75700 | 1.62 | 10.1 | 0.00114 | 705000 | 
H4H13302P2 (antibody, human IgG4, V domains shown, human IgG4 Fc (H4H), bivalent monospecific) VH: QVQLVESGGGVVQPGRSLRLSCAASGFTFSNFGMHWVRQAPGKGLEWVAGIWFDGSNKNYIDSVKGRFTISRDNSKNTLYLQMNSLRAEDTAVYYCAREGYDSGTDYIPYDIFDIWGQGTMVTVSS VL: not shown |  |  |  |  |  | 47 | 4.7 | 0.00246 | 52400 | 2.33 | 19.8 | 0.000584 | 251000 | 
